The results in this text go back to publication PMC3160658.

The target of data set [1] is RAD52;RPA (Homo sapiens;human?, UniProt P43351;P27694;P15927;P35244 1-418;1-616;1-270;1-121, |). Nature of the data set: FRET titration.
The target in data set [2] is T1, RAD52 Y104D (Homo sapiens, UniProt P43351 1-418, Y104D).
T1 sequence: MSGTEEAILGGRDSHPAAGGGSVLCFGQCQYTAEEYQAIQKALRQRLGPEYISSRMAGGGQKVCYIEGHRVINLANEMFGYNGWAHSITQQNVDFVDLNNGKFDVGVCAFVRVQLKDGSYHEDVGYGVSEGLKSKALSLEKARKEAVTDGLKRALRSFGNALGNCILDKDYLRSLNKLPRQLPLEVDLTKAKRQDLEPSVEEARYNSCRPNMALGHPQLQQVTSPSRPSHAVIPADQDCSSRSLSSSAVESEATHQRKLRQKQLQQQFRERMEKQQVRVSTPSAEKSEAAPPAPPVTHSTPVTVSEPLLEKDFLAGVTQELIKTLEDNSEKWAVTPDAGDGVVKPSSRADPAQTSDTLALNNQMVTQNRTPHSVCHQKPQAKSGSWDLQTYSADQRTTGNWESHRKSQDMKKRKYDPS
Nature of the data set: EMSA.

Sequence of RAD52;RPA (P27694 whole entry, chain 2 of 3): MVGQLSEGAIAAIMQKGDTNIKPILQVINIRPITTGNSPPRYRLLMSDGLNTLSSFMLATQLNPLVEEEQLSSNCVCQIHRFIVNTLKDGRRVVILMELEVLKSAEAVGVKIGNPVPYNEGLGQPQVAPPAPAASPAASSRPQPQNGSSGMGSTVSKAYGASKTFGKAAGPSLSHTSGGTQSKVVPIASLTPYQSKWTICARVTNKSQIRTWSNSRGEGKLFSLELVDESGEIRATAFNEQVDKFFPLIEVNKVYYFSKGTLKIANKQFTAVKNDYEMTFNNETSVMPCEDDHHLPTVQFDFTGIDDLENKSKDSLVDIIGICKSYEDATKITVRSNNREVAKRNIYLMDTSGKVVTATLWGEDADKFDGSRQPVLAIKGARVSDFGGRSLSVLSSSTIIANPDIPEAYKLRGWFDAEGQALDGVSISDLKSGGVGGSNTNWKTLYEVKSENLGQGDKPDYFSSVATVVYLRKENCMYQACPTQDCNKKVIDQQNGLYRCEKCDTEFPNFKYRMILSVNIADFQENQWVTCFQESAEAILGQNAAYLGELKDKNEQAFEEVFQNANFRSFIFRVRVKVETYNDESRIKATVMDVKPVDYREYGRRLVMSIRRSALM
Sequence of RAD52;RPA (P15927 whole entry, chain 3 of 3): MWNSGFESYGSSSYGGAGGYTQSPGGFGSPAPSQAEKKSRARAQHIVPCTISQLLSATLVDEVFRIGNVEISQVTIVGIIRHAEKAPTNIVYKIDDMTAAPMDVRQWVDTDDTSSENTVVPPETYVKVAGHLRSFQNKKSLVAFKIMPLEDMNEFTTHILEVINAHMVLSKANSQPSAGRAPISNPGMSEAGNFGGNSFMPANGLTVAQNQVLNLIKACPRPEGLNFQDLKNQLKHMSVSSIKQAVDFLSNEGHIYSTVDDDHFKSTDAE
Sequence of RAD52;RPA (P35244 whole entry, chain 4 of 3): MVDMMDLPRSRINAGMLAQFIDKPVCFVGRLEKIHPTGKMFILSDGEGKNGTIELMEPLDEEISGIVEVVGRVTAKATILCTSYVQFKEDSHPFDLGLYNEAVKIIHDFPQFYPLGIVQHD

As for TTTTTTTTTTTTTTTTTTTTTTTTTTTTTT (ssDNA) [Cy5-(dT)30-Cy3], the binding result in data set [1] and in data set [2] was “binds” in each case.
